Reference: the supplement of paper PMC9112550, “Optimization of the antimicrobial peptide Bac7 by deep mutational scanning” (BMC Biology, 2022)

System: Escherichia coli TOP10
Assay: shrunken log2 fold change of peptide-encoding DNA abundance (4.5 h post-induction vs induction); higher = less antimicrobial activity (less host growth inhibition)
Conditions: time post-induction: 4.5 h; library: site-saturation at positions 5, 18, 19, 20
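Note: peptides expressed intracellularly from a pBAD plasmid library in pooled LB shake-flask culture, induced with 0.3% L-arabinose, DNA abundance read by NGS, three biological replicates, DESeq2 with apeglm shrinkage.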

| Sequence | shrunken log2 fold change |
| --- | --- |
| RRIRKRPPRLPRPRPRPKHAPRP | -0.0322 |
| RRIRCRPPRLPRPRPRPEIVPRP | -0.221 |
| RRIRFRPPRLPRPRPRPPVVPRP | 0.159 |
| RRIRYRPPRLPRPRPRPCPPPRP | -0.839 |
| RRIRKRPPRLPRPRPRPYHKPRP | 0.0411 |
| RRIRHRPPRLPRPRPRPWFEPRP | -0.366 |
| RRIRERPPRLPRPRPRPQDVPRP | -0.177 |
| RRIRRRPPRLPRPRPRPAQHPRP | 0.369 |
| RRIRRRPPRLPRPRPRPQTMPRP | 0.0791 |
| RRIRKRPPRLPRPRPRPMNDPRP | 0.188 |
| RRIRKRPPRLPRPRPRPILLPRP | -0.313 |
| RRIRVRPPRLPRPRPRPTGQPRP | 0.526 |
| RRIRHRPPRLPRPRPRPDALPRP | 0.227 |
| RRIRERPPRLPRPRPRPMFHPRP | -0.897 |
| RRIRSRPPRLPRPRPRPIWIPRP | -0.0851 |
| RRIRARPPRLPRPRPRPAKWPRP | 0.273 |
| RRIRVRPPRLPRPRPRPRHFPRP | 0.13 |
| RRIRNRPPRLPRPRPRPRIEPRP | -0.117 |
| RRIRGRPPRLPRPRPRPIGQPRP | 0.0805 |
| RRIRNRPPRLPRPRPRPFWYPRP | 0.0148 |
| RRIRCRPPRLPRPRPRPVQDPRP | 0.0523 |
| RRIRERPPRLPRPRPRPYQYPRP | -0.0129 |

| Sequence | shrunken log2 fold change |
| --- | --- |
| RRIRQRPPRLPRPRPRPESQPRP | -0.0174 |
| RRIRYRPPRLPRPRPRPRMFPRP | -0.306 |
| RRIRRRPPRLPRPRPRPMQLPRP | 0.596 |
| RRIRWRPPRLPRPRPRPLDFPRP | 0.0518 |
| RRIRGRPPRLPRPRPRPSVVPRP | 0.658 |
| RRIRMRPPRLPRPRPRPGEMPRP | 0.0709 |
| RRIRMRPPRLPRPRPRPQNRPRP | -0.0361 |
| RRIRARPPRLPRPRPRPDEAPRP | 1.12 |
| RRIRMRPPRLPRPRPRPQLEPRP | 0.0634 |
| RRIRWRPPRLPRPRPRPGPPPRP | 0.671 |
| RRIRKRPPRLPRPRPRPLYMPRP | -0.514 |
| RRIRRRPPRLPRPRPRPGLPPRP | 0.33 |
| RRIRCRPPRLPRPRPRPYMWPRP | -0.913 |
| RRIRYRPPRLPRPRPRPSNHPRP | -0.29 |
| RRIRARPPRLPRPRPRPREKPRP | 0.383 |
| RRIRARPPRLPRPRPRPTPEPRP | 0.694 |
| RRIRWRPPRLPRPRPRPDQQPRP | 0.0822 |
| RRIRVRPPRLPRPRPRPCVEPRP | 0.0543 |
| RRIRSRPPRLPRPRPRPEENPRP | 0.64 |
| RRIRWRPPRLPRPRPRPFVHPRP | -0.423 |
| RRIRGRPPRLPRPRPRPWHDPRP | -0.178 |
| RRIRSRPPRLPRPRPRPDVEPRP | 0.00664 |

| Sequence | shrunken log2 fold change |
| --- | --- |
| RRIRRRPPRLPRPRPRPNICPRP | 0.0828 |
| RRIRKRPPRLPRPRPRPMLYPRP | -0.26 |
| RRIRKRPPRLPRPRPRPPSNPRP | 0.714 |
| RRIRERPPRLPRPRPRPGNAPRP | -0.0685 |
| RRIRMRPPRLPRPRPRPDLYPRP | 0.0737 |
| RRIRPRPPRLPRPRPRPKRKPRP | 0.238 |
| RRIRPRPPRLPRPRPRPSMEPRP | -0.157 |
| RRIRRRPPRLPRPRPRPHWAPRP | -0.17 |
| RRIRIRPPRLPRPRPRPHRWPRP | -0.0221 |
| RRIRVRPPRLPRPRPRPARWPRP | 0.586 |
| RRIRCRPPRLPRPRPRPHTVPRP | -0.371 |
| RRIRARPPRLPRPRPRPIDKPRP | 0.236 |
| RRIRMRPPRLPRPRPRPLASPRP | 1.34 |
| RRIRGRPPRLPRPRPRPSPFPRP | 0.168 |
| RRIRKRPPRLPRPRPRPPHKPRP | 0.835 |
| RRIRCRPPRLPRPRPRPVRQPRP | 0.126 |
| RRIRQRPPRLPRPRPRPPSDPRP | 1.18 |
| RRIRVRPPRLPRPRPRPDVVPRP | -0.36 |
| RRIRYRPPRLPRPRPRPHEPPRP | -0.133 |
| RRIRMRPPRLPRPRPRPPMKPRP | -0.0709 |
| RRIRRRPPRLPRPRPRPLGQPRP | 0.00384 |
| RRIRYRPPRLPRPRPRPKAEPRP | 0.0881 |

| Sequence | shrunken log2 fold change |
| --- | --- |
| RRIRMRPPRLPRPRPRPEQDPRP | 0.0255 |
| RRIRKRPPRLPRPRPRPTKNPRP | 0.392 |
| RRIRPRPPRLPRPRPRPQLSPRP | -0.485 |
| RRIRRRPPRLPRPRPRPFSGPRP | -0.32 |
| RRIRWRPPRLPRPRPRPCHGPRP | 0.0694 |
| RRIRFRPPRLPRPRPRPIYKPRP | -0.836 |
| RRIRKRPPRLPRPRPRPCNAPRP | -0.0429 |
| RRIRCRPPRLPRPRPRPDRVPRP | -0.112 |
| RRIRNRPPRLPRPRPRPYTRPRP | -0.124 |
| RRIRWRPPRLPRPRPRPKIDPRP | 0.0747 |
| RRIRRRPPRLPRPRPRPDLTPRP | 0.521 |
| RRIRERPPRLPRPRPRPGTRPRP | -0.0692 |
| RRIRNRPPRLPRPRPRPHILPRP | -0.106 |
| RRIRHRPPRLPRPRPRPQVAPRP | 0.0753 |
| RRIRLRPPRLPRPRPRPLPQPRP | 0.0529 |
| RRIRPRPPRLPRPRPRPWEIPRP | -0.00151 |
| RRIRARPPRLPRPRPRPNKPPRP | -0.0887 |
| RRIRERPPRLPRPRPRPRYGPRP | 1.59 |
| RRIRYRPPRLPRPRPRPQSRPRP | -0.17 |
| RRIRTRPPRLPRPRPRPPFQPRP | 0.0322 |
| RRIRWRPPRLPRPRPRPVDWPRP | 2.21 |
| RRIRRRPPRLPRPRPRPNEKPRP | -0.023 |

| Sequence | shrunken log2 fold change |
| --- | --- |
| RRIRLRPPRLPRPRPRPGNPPRP | 0.0749 |
| RRIRMRPPRLPRPRPRPLEYPRP | 0.0611 |
| RRIRHRPPRLPRPRPRPKIHPRP | -0.393 |
| RRIRFRPPRLPRPRPRPRGAPRP | 0.493 |
| RRIRERPPRLPRPRPRPQDYPRP | -0.091 |
| RRIRPRPPRLPRPRPRPSPDPRP | 0.146 |
| RRIRLRPPRLPRPRPRPIHTPRP | -0.133 |
| RRIRFRPPRLPRPRPRPHCPPRP | -0.629 |
| RRIRARPPRLPRPRPRPQTYPRP | 0.00151 |
| RRIRFRPPRLPRPRPRPQRYPRP | -0.139 |
| RRIRSRPPRLPRPRPRPKQTPRP | -0.159 |
| RRIRYRPPRLPRPRPRPFLTPRP | -0.871 |
| RRIRIRPPRLPRPRPRPWVCPRP | 0.0551 |
| RRIRTRPPRLPRPRPRPWQSPRP | 0.0475 |
| RRIRTRPPRLPRPRPRPSTPPRP | -0.195 |
| RRIRFRPPRLPRPRPRPIFVPRP | 0.108 |
| RRIRTRPPRLPRPRPRPWTLPRP | -0.0728 |
| RRIRPRPPRLPRPRPRPTTKPRP | 0.253 |
| RRIRMRPPRLPRPRPRPPGRPRP | 0.849 |
| RRIRWRPPRLPRPRPRPGKLPRP | -0.368 |
| RRIRLRPPRLPRPRPRPTSDPRP | 0.0874 |
